What was measured:
[1] = tested on: MMP-14 expressed in synovial cells; assay: Collagen film degradation by human synovial cells (Example 8); format: cell-based; settings: human fibroblasts on bovine type I collagen film, 4 days, data not shown; for collagen film degradation: 37° C.
Description: Human rheumatoid synovial fibroblasts spontaneously express high levels of MMP-14 (Miller et al, 2009 Arthritis Rheum. 2009 March; 60(3):686-97). When they are cultured on collagen film, MMP-14 expressed in synovial cells effectively degrades the collagen film. Human fibroblasts were cultured on bovine type I collagen film at 37° C. for 4 days in the presence or absence of a broad spectrum MMP-inhibitor GM6001, DX-2400 or DX-2410. Cells were then removed from collagen surface by trypsin/EDTA to reveal collagen film. Films were then fixed with 3% PFA for 30 min. and stained with Coomassie blue.

[2] = tested on: collagen-induced arthritis (CIA); assay: CIA mouse model, DX-2712 as monotherapy or combined with DMARDs or BRMs (Example 7); format: in vivo, mouse (DBA/1); settings: end of study, 31 days of therapy; number in parentheses = dose in mg/kg (Table 12); DX-2712 20 mg/kg IP Q2D
HT-1080 (fibrosarcoma) = assay: Invasion of HT-1080 through Matrigel; format: cell-based; settings: DX-1000 1 nM
Description: (§1) Firstly, DX-1000 (1 nM) inhibited both DHT-stimulated invasion of LNCaPs (prostate cancer) and HT-1080 (fibrosarcoma) through Matrigel, processes known to be dependent on the plasminogen/plasmin system.

LNCaPs (prostate cancer) = assay: DHT-stimulated invasion of LNCaPs through Matrigel; format: cell-based; settings: DX-1000 1 nM
Description: as §1

gelatinases = assay: Expression and activation of gelatinases; format: cell-based
human endothelial cells = assay: Tube formation of human endothelial cells; format: cell-based; settings: 1-10 nM; plated on Matrigel or collagen type I
[3] = Platelet function screening test
mouse endothelial cells = assay: Tube formation of mouse endothelial cells; format: cell-based; settings: 1-10 nM; plated on Matrigel or collagen type I
[4] = Global coagulation screening tests
human MMP-9 = human MMP-9 (Homo sapiens, UniProt P14780); assay: Inhibition of human MMP-9; format: biochemical
mouse MMP-9 = mouse MMP-9 (Mus musculus, UniProt P41245); assay: Inhibition of mouse MMP-9; format: biochemical
[5] = tested on: collagen-induced arthritis (CIA); assay: DX-2400 and DX-2410 in CIA mouse model (Example 10); format: in vivo, mouse (DBA); settings: 20 mg/kg i.p. 3x/week from day 21 after collagen injection; for development of arthritis as assessed by histological analysis of the joints: FIG. 9(A)
Description: 200 μg of chicken type II collagen was injected subcutaneously with complete Freunds adjuvant in DBA mice (male, 3-4 months old). After 21 days, test compounds were administered i.p. at 20 mg/kg, 3×/week. The first mouse which developed clinical symptom of arthritis was detected 26 days after collagen injection. […] FIG. 9(B) provides a description of the histology scoring system used.

human plasmin = molecular target: T1, human plasmin (human, UniProt P00747 97-810, limits assumed); assay: inhibition of human plasmin; method not described
T1 construct: In the cell invasion assays the plasmin is that of the cell cultures

[6] = tested on: collagen-induced arthritis (CIA); assay: MMP-12 inhibition in mouse collagen-induced arthritis (Example 1); format: in vivo; settings: 20 mg/kg IP Q2D
From the text: The study design was as depicted in Table 6 below. [table]

Chain of human MMP-9 (P14780 94-707): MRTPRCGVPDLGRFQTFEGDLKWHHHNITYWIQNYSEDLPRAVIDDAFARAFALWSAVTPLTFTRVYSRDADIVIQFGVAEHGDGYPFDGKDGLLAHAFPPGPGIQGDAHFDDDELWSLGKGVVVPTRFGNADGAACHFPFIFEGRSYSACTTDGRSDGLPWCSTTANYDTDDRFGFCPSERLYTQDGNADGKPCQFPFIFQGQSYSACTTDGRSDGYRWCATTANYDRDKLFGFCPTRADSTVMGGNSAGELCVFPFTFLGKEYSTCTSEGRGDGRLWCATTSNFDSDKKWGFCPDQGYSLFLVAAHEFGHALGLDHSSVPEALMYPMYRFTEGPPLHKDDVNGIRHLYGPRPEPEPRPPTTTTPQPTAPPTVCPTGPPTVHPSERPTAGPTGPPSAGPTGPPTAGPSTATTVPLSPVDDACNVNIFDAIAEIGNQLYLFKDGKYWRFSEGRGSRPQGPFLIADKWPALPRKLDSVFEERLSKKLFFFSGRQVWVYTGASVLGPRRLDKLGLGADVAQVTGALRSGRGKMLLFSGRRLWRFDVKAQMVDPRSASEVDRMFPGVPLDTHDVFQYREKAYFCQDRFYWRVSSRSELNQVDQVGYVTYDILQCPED
Chain of mouse MMP-9 (P41245 108-730): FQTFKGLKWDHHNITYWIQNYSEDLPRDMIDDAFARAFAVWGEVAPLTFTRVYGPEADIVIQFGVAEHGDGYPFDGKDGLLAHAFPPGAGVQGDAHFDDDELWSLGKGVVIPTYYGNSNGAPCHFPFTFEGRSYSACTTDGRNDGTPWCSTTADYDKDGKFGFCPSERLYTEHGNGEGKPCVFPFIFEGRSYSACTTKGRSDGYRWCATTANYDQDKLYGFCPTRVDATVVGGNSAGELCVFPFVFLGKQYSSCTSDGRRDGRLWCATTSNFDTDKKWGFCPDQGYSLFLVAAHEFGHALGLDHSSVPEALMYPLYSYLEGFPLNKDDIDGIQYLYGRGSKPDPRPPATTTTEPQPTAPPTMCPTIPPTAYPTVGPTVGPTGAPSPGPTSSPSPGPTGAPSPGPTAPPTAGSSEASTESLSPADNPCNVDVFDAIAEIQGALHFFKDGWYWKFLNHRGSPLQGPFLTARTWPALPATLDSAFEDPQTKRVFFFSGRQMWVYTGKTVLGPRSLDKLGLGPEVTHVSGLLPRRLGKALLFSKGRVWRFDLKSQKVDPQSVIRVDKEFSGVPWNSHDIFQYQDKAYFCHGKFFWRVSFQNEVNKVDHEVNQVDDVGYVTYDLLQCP
T1 sequence (P00747 97-810 limits assumed): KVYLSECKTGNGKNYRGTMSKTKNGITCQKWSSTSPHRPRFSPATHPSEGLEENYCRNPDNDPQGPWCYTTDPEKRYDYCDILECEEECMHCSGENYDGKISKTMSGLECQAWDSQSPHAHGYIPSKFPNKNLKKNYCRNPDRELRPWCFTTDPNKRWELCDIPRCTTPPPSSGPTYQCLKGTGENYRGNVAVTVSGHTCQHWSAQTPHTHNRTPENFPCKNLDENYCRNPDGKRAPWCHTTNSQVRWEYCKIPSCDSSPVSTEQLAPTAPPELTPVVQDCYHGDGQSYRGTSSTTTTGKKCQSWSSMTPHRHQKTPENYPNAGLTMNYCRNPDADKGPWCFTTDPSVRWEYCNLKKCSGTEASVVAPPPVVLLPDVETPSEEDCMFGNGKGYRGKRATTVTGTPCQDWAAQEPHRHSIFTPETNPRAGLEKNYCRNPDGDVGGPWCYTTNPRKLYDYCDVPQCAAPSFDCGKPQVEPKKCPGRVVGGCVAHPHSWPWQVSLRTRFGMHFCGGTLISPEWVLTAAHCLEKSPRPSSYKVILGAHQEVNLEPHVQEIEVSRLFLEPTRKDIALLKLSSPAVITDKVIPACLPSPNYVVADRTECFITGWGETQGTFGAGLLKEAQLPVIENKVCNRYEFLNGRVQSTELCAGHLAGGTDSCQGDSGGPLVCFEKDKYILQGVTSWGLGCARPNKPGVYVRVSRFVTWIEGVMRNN

CNC(=O)[C@H](Cc1c[nH]c2ccccc12)NC(=O)[C@@H](CC(=O)NO)CC(C)C [GM6001, reference compound]
collagen film degradation [1]: completely abolished

CN(Cc1cnc2nc(N)nc(N)c2n1)c1ccc(C(=O)N[C@@H](CCC(=O)O)C(=O)O)cc1 [MTX (3), methotrexate]
% change in AI Score [2]: −80.74%

DX-1000: Kunitz domain polypeptide that inhibits human plasmin; SEQ ID NO:100 or SEQ ID NO:200 (EAMHSFCAFKAETGPCRARFDRWFFNIFTRQCEEFIYGGCEGNQNRFESLEECKKMCTRD)
invasion of HT-1080 through Matrigel (HT-1080 (fibrosarcoma)): inhibited | DHT-stimulated invasion of LNCaPs through Matrigel (LNCaPs (prostate cancer)): inhibited | expression and activation of gelatinases (gelatinases): down-regulated efficiently | tube formation of human endothelial cells (human endothelial cells): efficiently blocked | effects on a platelet function screening test [3]: no clinically significant effects | tube formation of mouse endothelial cells (mouse endothelial cells): efficiently blocked | effects on global coagulation screening tests [4]: no clinically significant effects

Etanercept [Enbrel (30)]
% change in AI Score [2]: −70.37%

B1: 539A-M0240-B03: selective inhibitor of MMP-9; parental isolate (sFab; IgG) (antibody, V domains shown)
VL: QYELTQPRSVSGSPGQSVTISCTGTSSDVGGYNYVSWYQQHPGKAPKLMIYDVSKRPSGVPDRFSGSKSGNTASLTISGLQAEDEADYYCCSYAGSYTLVFGGGTKLTVL
VH: EVQLLESGGGLVQPGGSLRLSCAASGFTFSTYQMVWVRQAPGKGLEWVSVIYPSGGPTVYADSVKGRFTISRDNSKNTLYLQMNSLRAEDTAVYYCARGEDYYDSSGPGAFDIWGQGTMVTVSS
inhibition of human MMP-9 activity (human MMP-9): can decrease or inhibit the activity | inhibition of mouse MMP-9 activity (mouse MMP-9): can decrease or inhibit the activity

B2: DX-2400: exemplary MMP-14 antibody; VH SEQ ID NO:59, VL SEQ ID NO:23 (antibody, V domains shown)
VH: EVQLLESGGGLVQPGGSLRLSCAASGFTFSLYSMNWVRQAPGKGLEWVSSIYSSGGSTLYADSVKGRFTISRDNSKNTLYLQMNSLRAEDTAVYYCARGRAFDIWGQGTMVTVSS
VL: DIQMTQSPSSLSASVGDRVTITCRASQSVGTYLNWYQQKPGKAPKLLIYATSNLRSGVPSRFSGSGSGTDFTLTISSLQPEDFATYYCQQSYSIPRFTFGPGTKVDIK
inhibition of collagen film degradation at 500 nM [1]: almost complete inhibition | collagen film degradation [1]: inhibited collagen degradation in a dose-dependent manner | redness and swelling of paws [5]: did not significantly improve | development of arthritis as assessed by histological analysis of the joints [5]: significantly attenuated

B3: DX-2410: exemplary MMP-14 antibody; VH SEQ ID NO:24, VL SEQ ID NO:25 (antibody, V domains shown)
VH: EVQLLESGGGLVQPGGSLRLSCAASGFTFSVYGMVWVRQAPGKGLEWVSVISSSGGSTWYADSVKGRFTISRDNSKNTLYLQMNSLRAEDTAVYYCARPFSRRYGVFDYWGQGTLVTVSS
VL: DIQMTQSPSSLSASVGDRVTITCRASQGIRNFLAWYQQKPGKVPKLLIYGASALQSGVPSRFSGSGSGTDFTLTISSLQPEDVATYYCQKYNGVPLTFGGGTKVEIK
inhibition of collagen film degradation at 500 nM [1]: slightly lower than DX-2400, showing degraded area | collagen film degradation [1]: inhibited collagen degradation in a dose-dependent manner | redness and swelling of paws [5]: did not significantly improve | development of arthritis as assessed by histological analysis of the joints [5]: significantly attenuated

B4: DX-1000 (designed binder)
chain: EAMHSFCAFKAETGPCRARFDRWFFNIFTRQCEEFIYGGCEGNQNRFESLEECKKMCTRD
Ki (human plasmin): 88 pM

B5: DX-2712: Dyax inhibitor of MMP-12; specific MMP-12 antibody inhibitor; VL SEQ ID NO:118, VH SEQ ID NO:120 (antibody, V domains shown)
VH: EVQLLESGGGLVQPGGSLRLSCAASGFTFSWYWMHWVRQAPGKGLEWVSGISPSGGMTMYADSVKGRFTISRDNSKNTLYLQMNSLRAEDTAVYYCARDIVGPYSAGLFDYWGRGTLVTVSS
VL: DIQMTQSPSSLSASVGDRVTITCRASQSIYTYLNWYQQKPGKAPKLLIYAASSLQSGVPSRFSGSGSGTDFTLTISSLQPEDFATYYCQQAGIFGQGTKLEIK
overall inhibition of the arthritic histological indices ([6]; compared to untreated mice, p<0.05, FIG. 3): 29% | disease development (arthritic score) ([6]; days 36-46, FIG. 2): arrested | arthritic score ([6]; last day of the study, FIG. 2): sharp increase in arthritic score | disease development (arthritic score) ([6]; through day 35, FIG. 2): delayed disease development | % change in AI Score [2]: −34.07%

Source: patent US20110262396A1, “COMBINATION TREATMENTS COMPRISING PROTEASE BINDING PROTEINS FOR INFLAMMATORY DISORDERS” (DYAX CORP., priority 2008, published 2011)
